Data taken from paper PMC4237437, “Biochemical and Structural Characterization of Mycobacterial Aspartyl-tRNA Synthetase AspS, a Promising TB Drug Target” (PLoS ONE, 2014).

How the values were obtained:
[1] = biological target: T1, Mt-AspS (M. tuberculosis aspartyl-tRNA synthetase) (Mycobacterium tuberculosis, UniProt P9WFW3); experiment: biochemical
T1 construct: C-terminally His6-tagged Mt-AspS (pET28b)

[2] = test system: Nc1ncnc2c1ncn2[C@@H]1O[C@H](COP(=O)(O)OP(=O)(O)NP(=O)(O)O)[C@@H](O)[C@H]1O; experiment: purified protein
O=P(O)(O)OP(=O)(O)O = experiment: purified protein
[3] = test system: Nc1ncnc2c1ncn2[C@@H]1O[C@H](COP(=O)(O)OP(=O)(O)CP(=O)(O)O)[C@@H](O)[C@H]1O; experiment: purified protein
N[C@@H](CC(=O)O)C(=O)O = experiment: purified protein
[4] = biological target: the molecule itself; experiment: crystal structure; apo Ms-AspS, 2.4 Å, space group C222(1), one molecule per asymmetric unit; the two monomers of the dimer are related by crystal symmetry; crystals from 30% pentaerythritol ethoxylate, 0.1 M magnesium formate, 0.1 M Tris-HCl pH 8.5

T1 sequence (P9WFW3 whole entry): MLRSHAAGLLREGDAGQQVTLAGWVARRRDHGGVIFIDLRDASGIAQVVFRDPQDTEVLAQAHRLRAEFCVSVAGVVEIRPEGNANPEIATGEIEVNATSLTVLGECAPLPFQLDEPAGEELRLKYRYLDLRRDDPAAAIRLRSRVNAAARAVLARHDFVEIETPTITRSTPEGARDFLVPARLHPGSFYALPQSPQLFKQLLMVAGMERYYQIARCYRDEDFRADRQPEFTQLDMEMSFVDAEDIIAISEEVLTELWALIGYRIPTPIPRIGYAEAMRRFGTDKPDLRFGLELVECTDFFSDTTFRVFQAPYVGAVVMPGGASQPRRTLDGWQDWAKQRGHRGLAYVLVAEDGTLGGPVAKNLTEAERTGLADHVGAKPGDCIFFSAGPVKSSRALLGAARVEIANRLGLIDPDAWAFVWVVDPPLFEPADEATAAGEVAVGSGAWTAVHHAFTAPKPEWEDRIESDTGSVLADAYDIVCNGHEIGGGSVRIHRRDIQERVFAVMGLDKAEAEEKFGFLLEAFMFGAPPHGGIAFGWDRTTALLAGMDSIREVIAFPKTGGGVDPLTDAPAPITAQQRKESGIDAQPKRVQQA

Work on `NC(=O)C1CCN(C2=NC(=O)/C(=C\c3ccc(Cl)cc3Cl)S2)CC1` [compound 1, F1673-0402] yielded an IC50 [1] of 49.9 µM.

`CCOC(=O)C1CCN(C2=NC(=O)/C(=C\c3ccc(Cl)cc3)S2)CC1` [compound 2, 6632725] was tested, and the IC50 [1] was 59.1 µM.

For “Mt-AspS (M. tuberculosis aspartyl-tRNA synthetase) (Mycobacterium tuberculosis H37Rv)”, the Km [2] was 604.7 ± 40.27 µM, the Km (O=P(O)(O)OP(=O)(O)O) was 76.42 ± 10.10 µM and the Km [3] was 98.25 ± 11.23 µM. It also gave a Km (N[C@@H](CC(=O)O)C(=O)O) of 143.4 ± 18.83 µM.

B1: Mycobacterium smegmatis aspartyl-tRNA synthetase AspS (enzyme, UniProt A0QWN3 1-598, looked up)
chain: MLRTHAAGSLRPADAGQTVTLAGWVARRRDHGGVIFIDLRDASGVSQVVFREGDVLAAAHRLRAEFCVAVTGVVEVRPEGNENPEIPTGQIEVNATELTVLGESAPLPFQLDEQAGEEARLKYRYLDLRREGPGNALRLRSKVNAAARSVLAEHDFVEIETPTLTRSTPEGARDFLVPARLQPGSFYALPQSPQLFKQLLMVAGMERYYQIARCYRDEDFRADRQPEFTQLDMEMSFVEADDVIAISEQVLKAVWATIGYDLPLPLPRISYEEAMRRFGSDKPDLRFGIELVECTEYFKDTTFRVFQAPYVGAVVMPGGASQPRRTLDGWQEFAKQRGHKGLAYVLVGEDGTLGGPVAKNLSDAERDGLVAHVGANPGDCIFFAAGPAKGARALLGATRIEIAKRLDLIDPNAWAFTWVVDFPMFEAADEATAAGDVAVGSGAWTAMHHAFTAPKPDSVDTFDSDPGNALSDAYDIVCNGNEIGGGSIRIHRRDIQERVFAMMGIDHDEAQEKFGFLLDAFSYGAPPHGGIAFGWDRITALLAGVDSIREVIAFPKSGGGVDPLTDAPAPITPQQRKESGIDAKPREDKPKEDAKSKA
notes: Aspartyl-tRNA synthetase AspS of Mycobacterium smegmatis; The expression and purification protocol is printed only for Mt-AspS (E. coli C41 (DE3), Ni2+ HisTrap); also called Ms-AspS; MsAspS; source: cloned from M. smegmatis genomic DNA into pET28b; dialysed and concentrated by ultrafiltration before crystallisation
For B1, the “stoichiometry N” value [4] was 2.
